The results in this text go back to article PMC6602974 (Nature Communications, 2019).

This test concerns the target CH505 transmitted founder gp120 (HIV-1 CH505 transmitted/founder, UniProt M4M3Q1, strain). Briefly: SPR. Conditions: both partners purified.

B1: DH753 monoclonal antibody (IgG1) (antibody, V domains shown)
VH: EVHLVESGGGLVQPGGSLRLSCEVSGLTFSNSWMSWVRQAPGKGLEWVGFIKTKADGGTAAYAESVKGRFTISRDDSKNTVFLQMKSLKTEDTAVYYCQGAVVISHEYIEIWGQGALVTVSS
VL: QSVLTQPPSASEAARKSVTISCSGGSSNIGDDSVSWYQQVPGTAPKLLIYYNDRRASGVSDRFSGSKSGTSASLAINGLQSEDEADYYCAAWDDSLSAYIFGSGTRLTVL
notes: copies: 2 + 2
For the molecule B1, the binding result was “binds”.

B2: DH727.2 monoclonal antibody (IgG1) (antibody, V domains shown)
VH: QVQLVQSGAEVKKPGASVKLSCKASGNTFSIYGISWVRQAPGQGLEWMGGIIPPAGLTNYVQRFQGRVTITADTSTTTVYMELSSLTSEDTAVYYCAIRIGRGFDYWGQGVLVTVSS
VL: DIVMTQSPLSLPVTPGETASISCRSSQSLLDSEDGNTYLEWYLQKPGQSPQALIYEASNRASGVPDRFSGSGSDTDFTLKISRVEAEDVGIYYCMQTIEYPFTFGPGTKVDIK
notes: copies: 2 + 2
As for B2, the binding result is on record as “binds”.
